Experimental findings from patent publication US20250277208A1, “Method of Peptide Library Construction and Peptides Thereof” (Alcamena Stem Cell Therapeutics, LLC, priority 2024, published 2025) are described below.

The labels stand for the following.
B1: Peptide 44 (peptide)
peptide: H-SVRDLQKQMCHIVG-OH
notes: Printed SVRDLQKOMCHIVG (the letter O is as printed, perhaps a misprint); termini not protected
B2: Peptide 9 (peptide)
peptide: SVRDLLRRMCHIVG
notes: linear, N and C termini not protected; also called 9 (parent); parent peptide 9
B3: Peptide 33 (peptide)
peptide: SVRDLIRMMCHIVG
notes: termini not protected; also called variant 33
B4: Control peptide PN-2519 (peptide)
peptide: FD[Cha]DIHLL[Phe(4-F)]LPTEWEK[Gla]KNEE
notes: Printed FD(Cha)DIHLL(4F)LPTEWEK(Cla)KNEE; tested in a linear form
B5: Control peptide C1 (peptide)
peptide: SVKDLQHGLRHVVG
notes: homologous to peptide 9 without its mutations (two unmutated fragments of IL-6R); whether its termini were protected is not clear
B6: Control peptide RA07 (peptide)
peptide: INTLLSEINSILLDIISLL
notes: published peptide (Kobayashi et al. 2011) synthesized by the inventors; whether its termini were protected is not clear
B7: Control peptide PN-1974 (peptide)
peptide: H-FD[hLeu]DIHLLFLPTEWEKDKNEE-OH
SMILES: CC[C@H](C)[C@H](NC(=O)[C@H](CC(=O)O)NC(=O)[C@H](CCC(C)C)NC(=O)[C@H](CC(=O)O)NC(=O)[C@@H](N)Cc1ccccc1)C(=O)N[C@@H](Cc1c[nH]cn1)C(=O)N[C@@H](CC(C)C)C(=O)N[C@@H](CC(C)C)C(=O)N[C@@H](Cc1ccccc1)C(=O)N[C@@H](CC(C)C)C(=O)N1CCC[C@H]1C(=O)N[C@H](C(=O)N[C@@H](CCC(=O)O)C(=O)N[C@@H](Cc1c[nH]c2ccccc12)C(=O)N[C@@H](CCC(=O)O)C(=O)N[C@@H](CCCCN)C(=O)N[C@@H](CC(=O)O)C(=O)N[C@@H](CCCCN)C(=O)N[C@@H](CC(N)=O)C(=O)N[C@@H](CCC(=O)O)C(=O)N[C@@H](CCC(=O)O)C(=O)O)[C@@H](C)O
notes: linear, termini not protected
B8: Control peptide CA11 (peptide)
peptide: NQQLIEEIIQILHKIFEIL
notes: as for B6

Square brackets hold non-standard residues; d marks the D form. Ends that are not written are not given here. Phe(4-F) = N[C@@H](Cc1ccc(F)cc1)C(=O)O; Gla = N[C@@H](CC(C(=O)O)C(=O)O)C(=O)O; Cha = N[C@@H](CC1CCCCC1)C(=O)O; hLeu = CC(C)CC[C@H](N)C(=O)O

The target of one assay is T1, Biotinylated recombinant human IL-6 (human, UniProt P05231 30-212, biotinylated (sites not given)).
T1 construct: In the cell bioassay IL-6 (0.5 nM) was used in solution; also called Interleukin-6; IL-6-Biotin
The assay is described as follows: SPR (Biacore), IL-6 on chip.
SVRDLLSHNCHIVG (termini not protected) [Peptide 43]: the binding result is listed as “no binding (tested: 20 µM highest peptide concentration)”. One may read the Kd as the free concentration of one partner at which half of the binding sites on the other are occupied at equilibrium, for simple one-to-one binding. Take SVRDWTPRMCHIVG (termini not protected) [Peptide 48]: the Kd was 2820 nM.

With SVRDANYRMCHIVG (termini not protected) [Peptide 39], the binding result is “no binding (tested: 20 µM highest peptide concentration)”. On the same count and under the same terms, as for B1, the entry is “no binding (tested: 20 µM highest peptide concentration)”. For ACMDLLRRMCHIVG (termini not protected) [Peptide 28], the Kd came out at 2730 nM. Same read-out and setting: next, ETIRDLLRRMCHIVG (termini not protected) [Peptide 24]: 119 nM. ATIRDLLRRMCHIVG (termini not protected) [Peptide 38]: the Kd came out at 54 nM. Same read-out and setting: next, SVRDLPTQMCHIVG (termini not protected) [Peptide 37]: 649 nM; B2: 2580 nM; B3: 545 nM. Regarding SVRDLLRRMKVCVG (termini not protected) [Peptide 27], the Kd turned out to be 58 nM. With SVRDLLRRMCVFWG (termini not protected) [Peptide 49], the binding result is recorded as “no binding (tested: 20 µM highest peptide concentration)”.

For CVYRDLLRRMCHIVG (termini not protected) [Peptide 35], the binding result is on record as “no binding (tested: 20 µM highest peptide concentration)”. Turning to FAFRDLLRRMCHIVG (termini not protected) [Peptide 45], the Kd came to 92 nM. As to SVRDLQSTMCHIVG (termini not protected) [Peptide 47], the binding result is reported as “no binding (tested: 20 µM highest peptide concentration)”.

Another assay deals with T1, Biotinylated recombinant human IL-6. The assay is described as follows: SPR (Biacore), IL-6 on chip. The source holds these as a separate data set. On the technique in general: Surface plasmon resonance follows binding to a sensor surface in real time, without labels.
Regarding Ac-FAFRDLLSHNCHIVG-NH2 [Peptide 59], the binding result is “no binding (tested: 20 µM highest peptide concentration)”.

On to Ac-SVRDLIRMMKVCVG-NH2 [Peptide 64], for which the Kd worked out at 1390 nM. As to B4, the binding result is reported as “no binding (tested: 20 µM highest peptide concentration)”. Turning to Ac-ATIRDLIRMMCHIVG-NH2 (also called peptide variant 51) [Peptide 51], the equilibrium dissociation constant (Kd) worked out at 128 nM. Turning to B5, the binding result was “no binding (tested: 20 µM highest peptide concentration)”. In the case of Ac-SVRDLLRMMCHIVG-NH2 [Peptide 69], the Kd was determined as 172 nM. Still for that read-out and setting: as for Ac-AVRDLLRRMCHIVG-NH2 [Peptide 62], the figure is 519 nM.

Consider Ac-SFRDLLRRMCHIVG-NH2 [Peptide 63], for which the Kd was determined as 162 nM. Still for that read-out and setting: as for Ac-TIRDLLRMMKVIVG-NH2 [Peptide 84], the figure is 565 nM; as for Ac-SVRDLLRRMKHIVG-NH2 [Peptide 65], 150 nM; as for Ac-SVRDLLRRMKVIVG-NH2 [Peptide 73], 1130 nM. As to Ac-SVRDLIRRMCHIVG-NH2 [Peptide 68], the dissociation constant (Kd) worked out at 724 nM. Consider Ac-TIRDLLRRMCHIVG-NH2 [Peptide 71], for which the Kd amounted to 49 nM. Consider Ac-TVRDLLRRMCHIVG-NH2 [Peptide 55], for which the Kd came to 224 nM. Still for that read-out and setting: next, Ac-SIRDLLRRMCHIVG-NH2 [Peptide 56]: 305 nM.

For the molecule Ac-SVRDLLRRMCVIVG-NH2 [Peptide 66], the Kd was 283 nM. As to Ac-SVRDLLRRMCHCVG-NH2 (cysteine pairing not given here) [Peptide 67], the binding result is “no binding (tested: 20 µM highest peptide concentration)”. With Ac-ATIRDLLRRMKVCVG-NH2 [Peptide 53], the Kd was found to be 436 nM.

Take Ac-FAFRDLLRRMKVCVG-NH2 [Peptide 60]: the binding result is “no binding (tested: 20 µM highest peptide concentration)”. The same measure, in the same setting: as for B6, the entry is “no binding (tested: 20 µM highest peptide concentration)”. Turning to B7, the Kd was 61 nM. The same measure, in the same setting: as for Ac-FSFRDLLRMMCHIVG-NH2 [Peptide 80], the figure is 249 nM; as for Ac-FSFRDLIRMMKVCVG-NH2 [Peptide 93], 265 nM. Still for that read-out and setting: next, Ac-FAFRDLIRMMCHIVG-NH2 (also called variant 58) [Peptide 58]: 71 nM; Ac-FAFRDLIRMMCVIVG-NH2 [Peptide 78]: 1490 nM.

As to Ac-FAFRDLIRMMKHIVG-NH2 [Peptide 77], the equilibrium dissociation constant (Kd) turned out to be 405 nM. With Ac-FSVRDLIRMMKVCVG-NH2 [Peptide 87], the Kd came out at 47 nM.

On to Ac-FAFRDLLRMMCHIVG-NH2 [Peptide 75], for which the Kd stood at 132 nM.

As to Ac-FSVRDLLRRMCHIVG-NH2 [Peptide 61], the Kd stood at 144 nM. On the same count and under the same terms, next, Ac-ASVRDLLRRMCHIVG-NH2 [Peptide 54]: 422 nM.

As for Ac-FSFRDLLRMMKVIVG-NH2 [Peptide 81], the Kd stood at 1270 nM. The same measure, in the same setting: next, Ac-FAFRDLIRMMKVIVG-NH2 [Peptide 76]: 1300 nM. Turning to Ac-ATIRDLLSHNCHIVG-NH2 [Peptide 52], the binding result was “no binding (tested: 20 µM highest peptide concentration)”. As for B8, the Kd was determined as 50800 nM.

The target is the same in the next assay. The assay is described as follows: cell-based or functional assay.
As to Ac-ATIRDLIRMMKVCVG-NH2 [Peptide 82], the “IC50, inhibition of IL-6-induced cell signaling (IL-6 Bioassay, luciferase reporter cells)” value stood at 183 nM. Same read-out and setting: next, Ac-TIRDLLRRMCHIVG-NH2 [Peptide 71]: 3400 nM; Ac-SVRDLLRRMKVCVG-NH2 [Peptide 27 (2)]: 580 nM; Ac-FSFRDLLRRMCHIVG-NH2 [Peptide 72]: 23.5 nM.
